Key:
[1] = molecular target: T1, JCV major capsid protein VP1, wild type (John Cunningham virus (JCV), UniProt P03089 1-354); assay: cell-based or functional assay
[2] = molecular target: T2, JCV VP1 mutant S269F (John Cunningham virus (JCV), UniProt P03089 1-354); assay: cell-based or functional assay
[3] = molecular target: T3, JCV VP1 mutant L55F (John Cunningham virus (JCV), UniProt P03089 1-354); assay: cell-based or functional assay
[4] = molecular target: T1, JCV major capsid protein VP1, wild type; assay: ELISA, plates coated with pseudovirus, purified antibody
[5] = molecular target: T2, JCV VP1 mutant S269F; assay: as above
[6] = molecular target: T3, JCV VP1 mutant L55F; assay: as above

B1: 1G8 (antibody, V domains shown)
VH: QVQLVESGGGLVKPGGSLRLSCAASGFTFSDFYMSWIRQAPGMGLEWVSYISFSGRAIYYADSVRGRFTISRDNAKNSLYLQMNSLSAEDTAVYYCASDYYDNVGWDYWGPGTLVTVSS
VL: not shown
[1]
  Neutralization of wild type JCV, EC50 [pM]: 144 pM
[2]
  Neutralization of JCV S269F: EC50 [pM]: 22.7 pM
[3]
  Neutralization of JCV L55F: EC50 [pM]: 511 pM
[4]
  AB conc. (lowest concentration of antibody that gave a clear signal above background): < 2.5 ng/mL
  EC50: 7 ng/mL
[5]
  AB conc. (lowest concentration of antibody that gave a clear signal above background): < 2.5 ng/mL
  EC50: 7.7 ng/mL
[6]
  AB conc. (lowest concentration of antibody that gave a clear signal above background): < 2.5 ng/mL
  EC50: 16.7 ng/mL
